One test relates to LECs. The settings on record: in vitro and in vivo; cited from earlier work.
A further test relates to BAL cells. Description: BAL cell counts in mice treated with IL-17A or Pre-miR-34a. The format is in vivo, mouse.
In test [1] the test system is ATII cells and BALF of IL-17A treated mice. Nature of the test: IL-17A-induced lung injury in mice. The format is in vivo, mouse. Particulars: WT mice exposed to recombinant IL-17A, 24 h. As to the method: IL-17A is induced in passive tobacco smoke (PTS) exposed lung injury. […] Further, IL-17A induced ^p15Sp53 was inhibited following treatment of mice CSP7 when compared with those treated with saline and control peptide. To further test whether IL-17A induced ^p15Sp53 alters PAI-1 expression and ATII apoptosis, ATII cells of IL-17A treated mice for PAI-1 and apoptotic markers were analyzed. IL-17A induced the expression of PAI-1 and cl.Cas-3, and inhibited Sirt-1 expression in ATII cells. […] In addition, CSP7 treatment found to inhibit serine phosphorylation of p53 by neutralizing elevated IL-17A due to PTS exposure.
To test the importance of miR-34a mediated deacetylation of p53 IL-17A or PTS induced lung injury, miR34a conditional knockout mice were treated with tamoxifen. miR34a conditional knockout mice treated with IL-17A (3 μg/mice) was administered with CSP7 and CP a day later. ATII cells isolated from these mice were screened for PAI-1, Sirt-1 and apoptotic markers. […] Further, CSP7 treatment had little effect in miR-34a^cKo mice since these mice resist IL-17A or PTS injury.

Test [2] relates to A2ECs treated with IL-17A. Description: A2ECs exposed to IL-17A in vitro. It counts as cell-based, mouse. As to the method:
FIGS. 49A-49B show the role of IL-17A in PTS-induced p53, PAI-1 expression, and apoptosis in A2ECs. (A) IL-17A^−/− mice resist PTS-induced p53 expression and apoptosis in A2ECs. Mice were kept in ambient AIR or exposed to 20 weeks of PTS. A2ECs isolated from WT and IL-17A^−/− mice in AIR or exposed to PTS were analyzed for acetylated/total p53, Sirt1 and activated caspase-3 to assess apoptosis by Western blotting. (B) CSP inhibits IL-17A-induced p53 and PAI-1 expression and apoptosis in A2ECs in vitro. A2ECs isolated from WT mice were treated with PBS or IL-17A (100 ng/ml) in the presence or absence of CSP or control peptide, CP for 24 h in culture dishes. A2EC lysates were immunoblotted for p53, PAI-1, Cl./total caspase-3 and β-actin. WT mice exposed to IL-17A (FIG. 48D) and PTS (FIG. 46A) induce p53 acetylation and Cav1 expression, while inhibiting Sirt1 in A2ECs.
FIGS. 58A-58B show a 7-amino acid fragment of CSP, CSP7 Inhibits IL-17A-induced A2EC apoptosis. (A) Fragments of CSP were synthesized as shown. (B) A2ECs were treated with CSP or its fragments, or CP, 2 h after exposure of cells to IL-17A. A2EC lysates were immunoblotted for acetylated/total p53 and active/total caspase-3 24 h after IL-17A exposure. β-actin levels were evaluated to assess equal loading.
Increased p53 and apoptosis in A2ECs of mice exposed to PTS or IL-17A provided evidence that PTS acts by increasing IL-17A. To confirm that increased IL-17A contributes to the induction of p53 and PAI-1 expression, and apoptosis in A2ECs during PTS-induced lung injury, IL-17A-deficient mice were exposed to 20 weeks of PTS and control mice were kept in ambient air. A2ECs were tested for p53^AC, p53 and Sirt1 expression, and apoptosis. The responses were compared with changes in A2ECs isolated from WT mice exposed to 20 weeks of PTS or AIR. There was marked induction of p53^AC and p53 levels, and apoptosis with parallel suppression of Sirt1 expression in WT mice exposed to 20 weeks of PTS. […] To confirm mitigation of PTS induced lung injury by CSP or CSP7 involves suppression of IL-17A-induced p53, PAI-1 and apoptosis, A2ECs isolated from WT mice were next treated with IL-17A (100 ng/ml) with or without CSP, CSP7 or CP. Control cells were treated with vehicle (PBS) alone. The A2EC lysates were tested for p53 and p53-mediated downstream induction of PAI-1, and apoptosis. […] Further, induction of miR-34a increased p53 and apoptosis in A2ECs without exposure to tobacco smoke, while inhibition of miR-34a using miR-34a antisense (miR-34a-AS) reduced cigarette smoke induced p53 expression and apoptosis. Results of both in vitro and in vivo experiments support an intricate link between miR-34a, p53^AC, p53 and p53-mediated induction of PAI-1 expression, and A2EC apoptosis during PTS lung injury.

The values that follow come from US20240082342A1, “PEPTIDE THERAPEUTICS FOR INCREASING LUNG CELL VIABILITY” (BOARD OF REGENTS, THE UNIVERSITY OF TEXAS SYSTEM, priority 2018, published 2024).

Take “NYHYLESSMTALYTLGH (listed as Homo sapiens) [PP-2, 17 residue peptide]”: the “BLM-induced apoptosis of LECs and subsequent pulmonary fibrosis” value with LECs is “protected LECs from BLM-induced apoptosis in vitro and in vivo”.

B1: IL-17A: recombinant interleukin 17A used to induce A2C injury in vitro and in mice (protein, UniProt Q62386 26-158, looked up)
Interleukin-17A: AAIIPQSSACPNTEAKDFLQNVKVNLKVFNSLGAKVSSRRPSDYLNRSTSPWTLHRNEDPDRYPSVIWEAQCRHQRCVNAEGKLDHHMNSVLIQQEILVLKREPESCPFTFRVEKMLVGVGCTCVASIVRQAA
For the molecule B1, in the test on BAL cells, the “percentage of PMN in total BAL cells” value worked out at 11.27% and the “total BAL cells” value is listed as “two-fold increase”. Also, the “total and acetylated p53, apoptosis and Cav1 expression in A2ECs” value in test [1] is “marked increase in total and acetylated p53, apoptosis and induced Cav1 expression”. The “PAI-1 expression or apoptosis” value in test [2] (A2ECs lacking p53 expression) was “failed to induce PAI-1 expression or apoptosis”. Moreover, the “p53 and PAI-1 expression and apoptosis” value in test [2] (mouse and human A2ECs, IL-17A alone) was “induced expression of both p53 and PAI-1, and also apoptosis”.
